Laboratory results published in patent publication US5695964.

Legend:
[1] = biological target: human fibrinogen (human) (UniProt P02671)
[2] = biological target: bovine thrombin (bovine) (UniProt P00735); conditions: scale: relative activity
[3] = biological target: bovine thrombin (bovine) (UniProt P00735)
[4] = biological target: DIP-thrombin agarose; experiment: chromatography on DIP-thrombin agarose

Sequence of recombinant human urine thrombomodulin ruTM-Ala (receptor) (chain): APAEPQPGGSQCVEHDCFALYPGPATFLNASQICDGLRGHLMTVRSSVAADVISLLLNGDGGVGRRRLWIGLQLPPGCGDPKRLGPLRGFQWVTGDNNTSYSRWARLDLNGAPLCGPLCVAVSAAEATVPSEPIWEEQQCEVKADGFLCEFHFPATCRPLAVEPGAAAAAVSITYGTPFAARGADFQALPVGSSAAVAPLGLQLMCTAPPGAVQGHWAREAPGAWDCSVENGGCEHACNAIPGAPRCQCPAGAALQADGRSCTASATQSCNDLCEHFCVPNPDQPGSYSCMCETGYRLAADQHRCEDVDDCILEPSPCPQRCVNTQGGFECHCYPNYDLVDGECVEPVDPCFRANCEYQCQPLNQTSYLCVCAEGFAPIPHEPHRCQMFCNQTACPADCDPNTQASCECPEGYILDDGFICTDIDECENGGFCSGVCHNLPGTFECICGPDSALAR
Sequence of pKCR-TM-Val-originated recombinant human urine thrombomodulin (receptor) (chain): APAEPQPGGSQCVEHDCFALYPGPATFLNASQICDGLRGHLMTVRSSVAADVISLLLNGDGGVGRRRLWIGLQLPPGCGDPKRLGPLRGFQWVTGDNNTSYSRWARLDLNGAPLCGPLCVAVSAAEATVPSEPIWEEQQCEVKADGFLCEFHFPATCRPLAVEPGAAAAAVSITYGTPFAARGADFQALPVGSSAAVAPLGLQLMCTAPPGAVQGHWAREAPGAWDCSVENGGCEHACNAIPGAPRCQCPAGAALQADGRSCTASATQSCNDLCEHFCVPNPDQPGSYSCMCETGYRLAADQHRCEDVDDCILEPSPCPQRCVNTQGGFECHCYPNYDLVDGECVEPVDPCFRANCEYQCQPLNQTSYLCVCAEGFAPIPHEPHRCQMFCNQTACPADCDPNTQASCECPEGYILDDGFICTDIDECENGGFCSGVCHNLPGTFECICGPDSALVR
Sequence of mutation type recombinant human urine thrombomodulin in which 10 amino acid residues are deleted from the C-terminus of the human urine thrombomodulin (receptor) (chain): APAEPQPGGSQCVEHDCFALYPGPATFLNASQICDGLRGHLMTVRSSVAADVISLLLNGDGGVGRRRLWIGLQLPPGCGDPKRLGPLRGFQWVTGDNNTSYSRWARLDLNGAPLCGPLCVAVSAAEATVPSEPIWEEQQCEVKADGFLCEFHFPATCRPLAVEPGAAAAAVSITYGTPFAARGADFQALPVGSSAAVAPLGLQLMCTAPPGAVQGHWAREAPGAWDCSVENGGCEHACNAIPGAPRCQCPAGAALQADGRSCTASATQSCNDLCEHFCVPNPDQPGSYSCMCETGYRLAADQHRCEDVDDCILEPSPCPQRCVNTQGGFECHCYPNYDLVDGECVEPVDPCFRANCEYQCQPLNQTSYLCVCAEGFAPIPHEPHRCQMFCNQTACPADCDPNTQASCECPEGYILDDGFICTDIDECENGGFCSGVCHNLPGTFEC

Coagulation time [1] [s]	Protein C activating ability (relative activity) [2]	Coagulation time [3] [s]	adsorbed by thrombin [4] [%]	Substance
37.8	–	–	–	bovine thrombin (from UniProt P00735) (enzyme)
–	1	–	–	human placenta thrombomodulin (from UniProt P07204) (receptor)
–	4.1	–	–	mutation type recombinant human urine thrombomodulin in which 10 amino acid residues are deleted from the C-terminus of the human urine thrombomodulin (receptor)
–	–	> 500	100	pKCR-TM-Val-originated recombinant human urine thrombomodulin (receptor)
–	3.8	> 500	100	recombinant human urine thrombomodulin ruTM-Ala (receptor)
